According to publication PMC9106921 (Nature immunology, 2022):
No end group written: not given here.

Target: T1, recombinant cytoplasmic tail of CD4 (residues 421-458, C422S, C455S) (human, UniProt P01730 421-458, C422S | C455S)
T1 chain (looked up): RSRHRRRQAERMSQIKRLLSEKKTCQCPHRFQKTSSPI
Assay: NMR titration

SHPEDDWMENIDVCENCHYPIVPLDGKGT (domain or fragment, human, UniProt P06239 7-35, looked up, cysteine pairing not given here; also: 15N isotope labelling) [recombinant Lck (residues 7-35), 15N-labelled]
pKa of the pH-dependent disruption of the complex: 4.55 ± 0.1
